The values that follow come from patent US12534531 (MacroGenics, dated 2026).

The target in experiment [1] is T1, human PD-1 expressed on the surface of cells (NSO cells expressing human PD-1; MNFAT-luc2/PD-1 Jurkat cells) (human, UniProt Q15116 21-288).
T1 construct: also called cell surface PD-1; PDCD1 transfected NSO cells expressing PD-1
Kind of experiment: FACS saturation binding on NSO cells expressing human PD-1, goat anti-human-APC, MFI, 1:4 dilutions.

Experiment [2] deals with T1, human PD-1 expressed on the surface of …. As to the kind of experiment: FACS blocking on NSO cells expressing human PD-1, 1:4 dilutions, MFI; blocked ligand: biotinylated sPD-L2, streptavidin-PE.
For experiment [3], the target named is T2, soluble human PD-1 (the extracellular domain of human PD-1 fused to a His tag) (human, UniProt Q15116 25-170).
T2 construct: also called shPD-1 His; shPD-1-His; not shown: His tag
As to the kind of experiment: Biacore, mAb captured on F(ab)2 goat anti-human Fc, analyte shPD-1 His.

The target in experiment [4] is T1, human PD-1 expressed on the surface of …. Kind of experiment: FACS blocking on NSO cells expressing human PD-1, 1:4 dilutions, MFI; blocked ligand: biotinylated sPD-L1, streptavidin-PE.
Experiment [5] addresses T3, soluble cynomolgus monkey PD-1 (scyno PD-1 hFc) cleaved to remove Fc portion (cynomolgus monkey, UniProt B0LAJ3 25-170). Kind of experiment: Biacore, mAb captured on F(ab)2 goat anti-human Fc, analyte scyno PD-1 hFc cleaved of Fc.
In experiment [6] the target is T3, soluble cynomolgus monkey PD-1 (scyno …). As to the kind of experiment: Biacore, mAb captured on Protein A, analyte scyno PD-1 hFc cleaved of Fc.
The target in experiment [7] is T2, soluble human PD-1 (the extracellular …). Kind of experiment: ELISA: shPD-1 His coated at 1 ug/ml, goat anti-mouse (H+L)-HRP, RLU.
Experiment [8] concerns the target T4, soluble cynomolgus monkey PD-1 (the extracellular domain of cynomolgus monkey PD-1 fused to a human Fc Region) (cynomolgus monkey, UniProt B0LAJ3 25-170).
T4 construct: also called scyno-PD1 Fc; scynoPD-1-hFc; not shown: Human Fc Region and any linker or cleavage site between the extracellular domain and the Fc
Kind of experiment: ELISA: scyno-PD-1-TEV-Fc coated at 0.5 ug/ml, goat anti-mouse (H+L)-HRP, RLU.

The target in experiment [9] is T2, soluble human PD-1 (the extracellular …). Kind of experiment: Biacore, mAb captured on Protein A, analyte shPD-1 His.
Experiment [10] shares this target. As to the kind of experiment: ELISA: shPD-1 His coated at 0.5 ug/ml, goat anti-mouse (H+L)-HRP, RLU.
Experiment [11] addresses T5, PD-1 on the surface of CD4+ and CD8+ T cells of cynomolgus monkeys (cynomolgus monkey, UniProt B0LAJ3 25-288).
T5 construct: In vivo occupancy read by flow cytometry; also called PD-1+/CD4+ and PD-1+/CD8+ cells
Kind of experiment: flow cytometry competition with labeled hPD-1 mAb 7 (1.2) IgG4 (P) on blood of cynomolgus monkeys given 10 mg/kg.

Experiment [12] deals with T4, soluble cynomolgus monkey PD-1 (the …). As to the kind of experiment: ELISA: scyno-PD-1-TEV-hFc coated at 1 ug/ml, goat anti-mouse (H+L) detection, RLU.
For experiment [13], the target named is T1, human PD-1 expressed on the surface of …. As to the kind of experiment: FACS: biotinylated sPD-L2 on NSO cells expressing human PD-1, streptavidin-PE, MFI.

Where a chain is given by its changes, count along the chain named. Where only a bound is given, the exact number is not on record here.

T4 sequence (B0LAJ3 entry or part of it limits assumed): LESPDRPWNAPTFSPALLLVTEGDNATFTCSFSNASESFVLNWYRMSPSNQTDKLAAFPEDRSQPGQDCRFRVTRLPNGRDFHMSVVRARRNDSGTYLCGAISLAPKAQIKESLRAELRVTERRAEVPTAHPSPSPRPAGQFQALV
T2 sequence (Q15116 25-170): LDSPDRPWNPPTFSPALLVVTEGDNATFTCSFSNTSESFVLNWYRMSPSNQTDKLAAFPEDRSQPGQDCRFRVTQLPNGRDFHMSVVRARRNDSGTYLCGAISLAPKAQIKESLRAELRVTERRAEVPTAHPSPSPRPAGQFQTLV
T1 sequence (Q15116 21-288): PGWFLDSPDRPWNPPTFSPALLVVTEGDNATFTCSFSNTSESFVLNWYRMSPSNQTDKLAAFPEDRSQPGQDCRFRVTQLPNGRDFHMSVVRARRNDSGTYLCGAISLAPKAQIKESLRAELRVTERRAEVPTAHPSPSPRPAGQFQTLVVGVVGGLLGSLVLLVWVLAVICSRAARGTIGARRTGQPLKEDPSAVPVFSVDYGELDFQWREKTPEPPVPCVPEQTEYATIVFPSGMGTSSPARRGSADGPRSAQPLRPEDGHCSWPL
T5 sequence (B0LAJ3 entry or part of it limits assumed): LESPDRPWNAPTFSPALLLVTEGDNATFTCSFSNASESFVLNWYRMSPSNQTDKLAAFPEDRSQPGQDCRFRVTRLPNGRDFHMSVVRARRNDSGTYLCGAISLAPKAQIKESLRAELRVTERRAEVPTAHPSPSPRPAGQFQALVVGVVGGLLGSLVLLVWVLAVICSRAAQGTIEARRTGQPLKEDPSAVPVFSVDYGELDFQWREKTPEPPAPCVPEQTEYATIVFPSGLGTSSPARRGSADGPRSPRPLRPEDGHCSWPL

B1: hPD-1 mAb 9 (1.1) IgG4 (P) (antibody)
heavy: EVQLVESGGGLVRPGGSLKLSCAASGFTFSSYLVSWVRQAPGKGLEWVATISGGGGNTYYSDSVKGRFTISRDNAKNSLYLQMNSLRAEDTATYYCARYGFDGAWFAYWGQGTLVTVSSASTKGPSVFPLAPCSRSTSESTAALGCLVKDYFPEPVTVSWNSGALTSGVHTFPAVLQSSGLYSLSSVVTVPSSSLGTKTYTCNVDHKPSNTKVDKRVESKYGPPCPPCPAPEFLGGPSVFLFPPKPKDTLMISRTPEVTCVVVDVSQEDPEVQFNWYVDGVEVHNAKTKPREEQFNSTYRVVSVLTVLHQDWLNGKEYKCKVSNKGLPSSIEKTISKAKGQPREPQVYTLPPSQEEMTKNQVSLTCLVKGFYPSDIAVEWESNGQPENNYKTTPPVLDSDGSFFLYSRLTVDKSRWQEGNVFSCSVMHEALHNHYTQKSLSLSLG
light: DIQMTQSPSSLSASVGDRVTITCRASENIYSYLAWYQQKPGKAPKLLIYNAKTLAAGVPSRFSGSGSGTDFTLTISSLQPEDFATYYCQHHYAVPWTFGQGTKLEIKRTVAAPSVFIFPPSDEQLKSGTASVVCLLNNFYPREAKVQWKVDNALQSGNSQESVTEQDSKDSTYSLSSTLTLSKADYEKHKVYACEVTHQGLSSPVTKSFNRGEC
notes: also called hPD-1 mAb 9 IgG4 (P)
For the molecule B1, the “EC50 (read off the curve)” value in experiment [1] was roughly 0.5 µg/mL. For the same molecule, the “IC50 (read off the curve)” value was roughly 0.1 ug/test in experiment [2] and roughly 0.03 ug/test in experiment [4]. Moreover, the Kd in experiment [3] came to 9.5 nM; in experiment [5], 15.1 nM.

B2: hPD-1 mAb 9 (1.1) IgG1 (AA) (antibody)
heavy: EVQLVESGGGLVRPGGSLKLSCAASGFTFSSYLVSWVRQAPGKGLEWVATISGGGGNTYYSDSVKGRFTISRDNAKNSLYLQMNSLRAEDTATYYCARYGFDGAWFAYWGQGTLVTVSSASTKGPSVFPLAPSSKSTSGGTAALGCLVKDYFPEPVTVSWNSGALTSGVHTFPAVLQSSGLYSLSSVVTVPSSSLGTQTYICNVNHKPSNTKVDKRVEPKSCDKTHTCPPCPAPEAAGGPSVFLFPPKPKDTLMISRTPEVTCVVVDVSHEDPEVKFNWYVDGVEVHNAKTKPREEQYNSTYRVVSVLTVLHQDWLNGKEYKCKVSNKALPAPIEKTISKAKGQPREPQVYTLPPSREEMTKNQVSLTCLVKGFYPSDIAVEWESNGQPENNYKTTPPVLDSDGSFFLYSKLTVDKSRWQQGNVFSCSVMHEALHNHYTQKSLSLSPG
light: B1 light
notes: also called hPD-1 mAb 9 IgG1 (AA)
B2: in [1], the “EC50 (read off the curve)” value was roughly 0.2 µg/mL. Besides, the entries for the “IC50 (read off the curve)” value in [2] and in [4] were roughly 0.1 ug/test and roughly 0.06 ug/test, respectively. The Kd was 10.9 nM in [3] and 9.3 nM in experiment [5].

B3: PD-1 mAb 2 (antibody, V domains shown)
VH: DVQLVESGGGLVQPGGSRKLSCAASGFVFSSFGMHWVRQAPEKGLEWVAYISSGSMSISYADTVKGRFTVTRDNAKNTLFLQMTSLRSEDTAIYYCASLSDYFDYWGQGTTLTVSS
VL: DVVMSQTPLSLPVSLGDQASISCRSSQSLVHSTGNTYLHWYLQKPGQSPKLLIYRVSNRFSGVPDRFSGSGSGTDFTLKISRVEAEDLGVFFCSQTTHVPWTFGGGTKLEIK
notes: Murine monoclonal antibody
As for B3, the equilibrium dissociation constant (Kd) in experiment [6] came out at 14.3 nM; in [9] it was 10.2 nM. Besides, the “EC50 (read off the curve)” value in experiment [7] and in experiment [8] was roughly 0.3 nM throughout.

B4: PD-1 mAb 4 (antibody, V domains shown)
VH: B3 VH with S100T
VL: B3 VL with L38F, F91Y
notes: Murine monoclonal antibody
Turning to B4, the “EC50 (read off the curve)” value in experiment [7] and in experiment [8] was roughly 0.3 nM each time.

B5: PD-1 mAb 1 (antibody, V domains shown)
VH: DVQLQESGPGRVKPSQSLSLTCTVTGFSITNDYAWNWIRQFPGNKLEWMGHITYSGSTSYNPSLKSRISITRDTSKNHFFLQLSSVTPEDTATYYCARDYGSGYPYTLDYWGQGTSVTVSS
VL: QIVLTQSPALMSASPGEKVTMTCSATSIVSYVYWYQQKPGSSPQPWIYLTSNLASGVPARFSGSGSGTSYSLTISSMEAEDAATYYCQQWSDNPYTFGGGTKLEIK
notes: Murine monoclonal antibody
As to B5, the “EC50 (read off the curve)” value in experiment [7] and in experiment [8] was roughly 0.3 nM in each case.

B6: PD-1 mAb 5 (antibody, V domains shown)
VH: QVQLQQPGVELVRPGASVKLSCKASGYSFTAYWMNWMKQRPGQGLEWIGVIHPSDSETWLNQKFKDKATLTVDKSSSTAYMQLISPTSEDSAVYYCAREHYGSSPFAYWGQGTLVTVSA
VL: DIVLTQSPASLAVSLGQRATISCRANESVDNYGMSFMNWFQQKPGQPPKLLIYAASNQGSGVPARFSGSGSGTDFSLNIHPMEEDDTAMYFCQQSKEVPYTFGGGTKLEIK
notes: Murine monoclonal antibody
Consider B6, for which, in experiment [10], the “EC50 (read off the curve)” value is roughly 0.3 nM. Also, the binding result in experiment [8] is “binds”.

B7: PD-1 mAb 7 (antibody, V domains shown)
VH: B6 VH with V9A, A31S, M37V, N61D, S77T, S103T, A119S
VL: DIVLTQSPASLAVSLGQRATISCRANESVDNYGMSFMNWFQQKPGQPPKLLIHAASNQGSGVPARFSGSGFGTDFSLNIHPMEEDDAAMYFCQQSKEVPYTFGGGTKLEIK
notes: Murine monoclonal antibody
B7: the results for the “EC50 (read off the curve)” value in [10] and in [8] were roughly 0.2 nM and roughly 0.3 nM, respectively. Also, the Kd came to 3.5 nM in [6] and 1.3 nM in experiment [9].

B8: PD-1 mAb A IgG4 (P) (antibody, V domains shown)
VH: QVQLVESGGGVVQPGRSLRLDCKASGITFSNSGMHWVRQAPGKGLEWVAVIWYDGSKRYYADSVKGRFTISRDNSKNTLFLQMNSLRAEDTAVYYCATNDDYWGQGTLVTVSS
VL: EIVLTQSPATLSLSPGERATLSCRASQSVSSYLAWYQQKPGQAPRLLIYDASNRATGIPARFSGSGSGTDFTLTISSLEPEDFAVYYCQQSSNWPRTFGQGTKVEIK
Take B8: the “PD-1 binding on CD4+ and CD8+ T cells (% bound, in vivo)” value in [11] is no less than 80%. The same molecule had a Kd in experiment [5] of 6 nM.

B9: hPD-1 mAb 7 (1.1) IgG1 (AA) (antibody, V domains shown)
VH: QVQLVQSGAEVKKPGASVKVSCKASGYSFTSYWMNWVRQAPGQGLEWIGVIHPSDSETWLDQKFKDRVTITVDKSTSTAYMELSSLRSEDTAVYYCAREHYGTSPFAYWGQGTLVTVSS
VL: EIVLTQSPATLSLSPGERATLSCRANESVDNYGMSFMNWFQQKPGQPPKLLIHAASNQGSGVPSRFSGSGSGTDFTLTISSLEPEDFAVYFCQQSKEVPYTFGGGTKVEIKR
notes: VH1 with VL1
As for B9, the “EC50 (read off the curve)” value in experiment [1] was roughly 0.2 µg/mL. In addition, the “IC50 (read off the curve)” value in [2] and in experiment [4] was roughly 0.01 ug/test in each case.

B10: PD-1 mAb 9 (antibody, V domains shown)
VH: EVMLVESGGGLVKPGGSLKLSCAASGFTFSSYLVSWVRQTPEKRLEWVATISGGGGNTYYSDSVKGRFTISRDNAKNTLYLQISSLRSEDTALYYCARYGFDGAWFAYWGQGTLVTVSS
VL: DIQMTQSPASLSASVGDIVTITCRASENIYSYLAWYQQKQEKSPQLLVYNAKTLAAGVPSRFSGSGSGTQFSLTINSLQPEDFGNYYCQHHYAVPWTFGGGTRLEIT
notes: Murine monoclonal antibody
Regarding B10, the Kd stood at 72.7 nM in experiment [6] and 9.8 nM in experiment [9]. Further, the “EC50 (read off the curve)” value in experiment [7] was roughly 0.4 nM. The binding result in experiment [12] is “binds”.

B11: PD-1 mAb B IgG4 (P) (antibody, V domains shown)
VH: QVQLVQSGVEVKKPGASVKVSCKASGYTFTNYYMYWVRQAPGQGLEWMGGINPSNGGTNFNEKFKNRVTLTTDSSTTTAYMELKSLQFDDTAVYYCARRDYRFDMGFDYWGQGTTVTVSS
VL: EIVLTQSPATLSLSPGERATLSCRASKGVSTSGYSYLHWYQQKPGQAPRLLIYLASYLESGVPARFSGSGSGTDFTLTISSLEPEDFAVYYCQHSRDLPLTFGGGTKVEIK
B11: in experiment [11], the “PD-1 binding on CD4+ and CD8+ T cells (% bound, in vivo)” value is no less than 80%. In [5], this molecule gave a Kd of 4 nM.

B12: PD-1 mAb 6 (antibody, V domains shown)
VH: EVKLVESGGGLVNPGGSLKLSCAASGFTFSSYGMSWVRQTPEKRLEWVATISGGGSDTYYPDSVKGRFTISRDNAKNNLYLQMSSLRSEDTALYYCARQKATTWFAYWGQGTLVTVST
VL: not shown
notes: Murine monoclonal antibody
Take B12: the “EC50 (read off the curve)” value in experiment [10] is roughly 0.3 nM. In addition, the binding result in experiment [8] is on record as “binds”.

B13: biotinylated-soluble human PD-L2-muIgFc fusion protein (Ancell Cat #573-030) (Fc fusion, UniProt Q9BQ51 20-220, looked up)
chain: LFTVTVPKELYIIEHGSNVTLECNFDTGSHVNLGAITASLQKVENDTSPHRERATLLEEQLPLGKASFHIPQVQVRDEGQYQCIIIYGVAWDYKYLTLKVKASYRKINTHILKVPETDEVELTCQATGYPLAEVSWPNVSVPANTSHSRTPEGLYQVTSVLRLKPPPGRNFSCVFWNTHVRELTLASIDLQSQMEPRTHPT
modifications: biotinylated (site not stated)
notes: Bought reagent; also called shPD-L2; sPD-L2; not shown: murine Ig Fc
For B13, the binding result in experiment [13] is “binds”.
